B1: NCR3.18.1 (Fab, V domains shown)
VH: EVQLVESGGGLVQPGGSLRLSCAASGFNVSSSSIHWVRQAPGKGLEWVASISSSSGSTSYADSVKGRFTISADTSKNTAYLQMNSLRAEDTAVYYCARRASSRFRSYYDSFYYAGMDYWGQGTLVTVSS
VL: DIQMTQSPSSLSASVGDRVTITCRASQSVSSAVAWYQQKPGKAPKLLIYSASSLYSGVPSRFSGSRSGTDFTLTISSLQPEDFATYYCQQSSSSLITFGQGTKVEIKR
notes: substitutions derived by comparing with parental HC3
B2: NCR3.18.3 (Fab, V domains shown)
VH: EVQLVESGGGLVQPGGSLRLSCAASGFNVSSSSIHWVRQAPGKGLEWVASISSSSGSTSYADSVKGRFTISADTSKNTAYLQMNSLRAEDTAVYYCARRIGSIYRSYYDSFYYAGMDYWGQGTLVTVSS
VL: DIQMTQSPSSLSASVGDRVTITCRASQSVSSAVAWYQQKPGKAPKLLIYSASSLYSGVPSRFSGSRSGTDFTLTISSLQPEDFATYYCQQSSSSLITFGQGTKVEIKR
notes: substitutions derived against parental HC3
B3: NCR3.18.4 (Fab, V domains shown)
VH: EVQLVESGGGLVQPGGSLRLSCAASGFNVSSSSIHWVRQAPGKGLEWVASISSSSGSTSYADSVKGRFTISADTSKNTAYLQMNSLRAEDTAVYYCARRISSHYMSYYDSFYYAGMDYWGQGTLVTVSS
VL: DIQMTQSPSSLSASVGDRVTITCRASQSVSSAVAWYQQKPGKAPKLLIYSASSLYSGVPSRFSGSRSGTDFTLTISSLQPEDFATYYCQQSSSSLITFGQGTKVEIKR
notes: as for B2
B4: NCR3.18.6 (Fab, V domains shown)
VH: EVQLVESGGGLVQPGGSLRLSCAASGFNVSSSSIHWVRQAPGKGLEWVASISSSSGSTSYADSVKGRFTISADTSKNTAYLQMNSLRAEDTAVYYCARRISSSYMSYYDSFYYAGMDYWGQGTLVTVSS
VL: DIQMTQSPSSLSASVGDRVTITCRASQSVSSAVAWYQQKPGKAPKLLIYSASSLYSGVPSRFSGSRSGTDFTLTISSLQPEDFATYYCQQSSSSLITFGQGTKVEIKR
notes: as for B2
B5: NCR3.18.7 (Fab, V domains shown)
VH: EVQLVESGGGLVQPGGSLRLSCAASGFNVSSSSIHWVRQAPGKGLEWVASISSSSGSTSYADSVKGRFTISADTSKNTAYLQMNSLRAEDTAVYYCARRISSYYISYYDSFYYAGMDYWGQGTLVTVSS
VL: DIQMTQSPSSLSASVGDRVTITCRASQSVSSAVAWYQQKPGKAPKLLIYSASSLYSGVPSRFSGSRSGTDFTLTISSLQPEDFATYYCQQSSSSLITFGQGTKVEIKR
notes: as for B2
B6: NCR3.18.8 (Fab, V domains shown)
VH: EVQLVESGGGLVQPGGSLRLSCAASGFNVSSSSIHWVRQAPGKGLEWVASISSSSGSTSYADSVKGRFTISADTSKNTAYLQMNSLRAEDTAVYYCARRISSYYVSYYDSFYYAGMDYWGQGTLVTVSS
VL: DIQMTQSPSSLSASVGDRVTITCRASQSVSSAVAWYQQKPGKAPKLLIYSASSLYSGVPSRFSGSRSGTDFTLTISSLQPEDFATYYCQQSSSSLITFGQGTKVEIKR
notes: as for B2
B7: NCR3.18.9 (Fab, V domains shown)
VH: EVQLVESGGGLVQPGGSLRLSCAASGFNVSSSSIHWVRQAPGKGLEWVASISSSSGSTSYADSVKGRFTISADTSKNTAYLQMNSLRAEDTAVYYCARRKSSSYWSYYDSFYYAGMDYWGQGTLVTVSS
VL: DIQMTQSPSSLSASVGDRVTITCRASQSVSSAVAWYQQKPGKAPKLLIYSASSLYSGVPSRFSGSRSGTDFTLTISSLQPEDFATYYCQQSSSSLITFGQGTKVEIKR
notes: as for B2
B8: NCR3.18.10 (Fab, V domains shown)
VH: EVQLVESGGGLVQPGGSLRLSCAASGFNVSSSSIHWVRQAPGKGLEWVASISSSSGSTSYADSVKGRFTISADTSKNTAYLQMNSLRAEDTAVYYCARRKSSYYMSYYDSFYYAGMDYWGQGTLVTVSS
VL: DIQMTQSPSSLSASVGDRVTITCRASQSVSSAVAWYQQKPGKAPKLLIYSASSLYSGVPSRFSGSRSGTDFTLTISSLQPEDFATYYCQQSSSSLITFGQGTKVEIKR
notes: as for B2
B9: NCR3.18.11 (Fab, V domains shown)
VH: EVQLVESGGGLVQPGGSLRLSCAASGFNVSSSSIHWVRQAPGKGLEWVASISSSSGSTSYADSVKGRFTISADTSKNTAYLQMNSLRAEDTAVYYCARRLGSRYRSYYDSFYYAGMDYWGQGTLVTVSS
VL: DIQMTQSPSSLSASVGDRVTITCRASQSVSSAVAWYQQKPGKAPKLLIYSASSLYSGVPSRFSGSRSGTDFTLTISSLQPEDFATYYCQQSSSSLITFGQGTKVEIKR
notes: as for B2
B10: NCR3.18.12 (Fab, V domains shown)
VH: EVQLVESGGGLVQPGGSLRLSCAASGFNVSSSSIHWVRQAPGKGLEWVASISSSSGSTSYADSVKGRFTISADTSKNTAYLQMNSLRAEDTAVYYCARRRASYYKTYYDSFYYAGMDYWGQGTLVTVSS
VL: DIQMTQSPSSLSASVGDRVTITCRASQSVSSAVAWYQQKPGKAPKLLIYSASSLYSGVPSRFSGSRSGTDFTLTISSLQPEDFATYYCQQSSSSLITFGQGTKVEIKR
notes: as for B2
B11: NCR3.18.13 (Fab, V domains shown)
VH: EVQLVESGGGLVQPGGSLRLSCAASGFNVSSSSIHWVRQAPGKGLEWVASISSSSGSTSYADSVKGRFTISADTSKNTAYLQMNSLRAEDTAVYYCARRRSSYYMTYYDSFYYAGMDYWGQGTLVTVSS
VL: DIQMTQSPSSLSASVGDRVTITCRASQSVSSAVAWYQQKPGKAPKLLIYSASSLYSGVPSRFSGSRSGTDFTLTISSLQPEDFATYYCQQSSSSLITFGQGTKVEIKR
notes: as for B2
B12: NCR3.18.14 (Fab, V domains shown)
VH: EVQLVESGGGLVQPGGSLRLSCAASGFNVSSSSIHWVRQAPGKGLEWVASISSSSGSTSYADSVKGRFTISADTSKNTAYLQMNSLRAEDTAVYYCARRTGSYYMTYYDSFYYAGMDYWGQGTLVTVSS
VL: DIQMTQSPSSLSASVGDRVTITCRASQSVSSAVAWYQQKPGKAPKLLIYSASSLYSGVPSRFSGSRSGTDFTLTISSLQPEDFATYYCQQSSSSLITFGQGTKVEIKR
notes: as for B2
B13: NCR3.18.15 (Fab, V domains shown)
VH: EVQLVESGGGLVQPGGSLRLSCAASGFNVSSSSIHWVRQAPGKGLEWVASISSSSGSTSYADSVKGRFTISADTSKNTAYLQMNSLRAEDTAVYYCARRTSSHYISYYDSFYYAGMDYWGQGTLVTVSS
VL: DIQMTQSPSSLSASVGDRVTITCRASQSVSSAVAWYQQKPGKAPKLLIYSASSLYSGVPSRFSGSRSGTDFTLTISSLQPEDFATYYCQQSSSSLITFGQGTKVEIKR
notes: as for B2
B14: NCR3.18.17 (Fab, V domains shown)
VH: EVQLVESGGGLVQPGGSLRLSCAASGFNVSSSSIHWVRQAPGKGLEWVASISSSSGSTSYADSVKGRFTISADTSKNTAYLQMNSLRAEDTAVYYCARRVGSYYMSYYDSFYYAGMDYWGQGTLVTVSS
VL: DIQMTQSPSSLSASVGDRVTITCRASQSVSSAVAWYQQKPGKAPKLLIYSASSLYSGVPSRFSGSRSGTDFTLTISSLQPEDFATYYCQQSSSSLITFGQGTKVEIKR
notes: as for B2
B15: NCR3.18.18 (Fab, V domains shown)
VH: EVQLVESGGGLVQPGGSLRLSCAASGFNVSSSSIHWVRQAPGKGLEWVASISSSSGSTSYADSVKGRFTISADTSKNTAYLQMNSLRAEDTAVYYCARRVSSNYMSYYDSFYYAGMDYWGQGTLVTVSS
VL: DIQMTQSPSSLSASVGDRVTITCRASQSVSSAVAWYQQKPGKAPKLLIYSASSLYSGVPSRFSGSRSGTDFTLTISSLQPEDFATYYCQQSSSSLITFGQGTKVEIKR
notes: as for B2
B16: NCR3.18.19 (Fab, V domains shown)
VH: EVQLVESGGGLVQPGGSLRLSCAASGFNVSSSSIHWVRQAPGKGLEWVASISSSSGSTSYADSVKGRFTISADTSKNTAYLQMNSLRAEDTAVYYCARRVSSPYMSYYDSFYYAGLDYWGQGTLVTVSS
VL: DIQMTQSPSSLSASVGDRVTITCRASQSVSSAVAWYQQKPGKAPKLLIYSASSLYSGVPSRFSGSRSGTDFTLTISSLQPEDFATYYCQQSSSSLITFGQGTKVEIKR
notes: as for B2

How the values were obtained:
[1] = target: T1, NCR3 (antigen of the ELISA in the affinity-maturation table) (human, UniProt O14931 19-135, limits assumed); assay: ELISA, Fab on NCR3
T1 construct: also called Natural Cytotoxicity Triggering Receptor 3
T1 sequence (looked up): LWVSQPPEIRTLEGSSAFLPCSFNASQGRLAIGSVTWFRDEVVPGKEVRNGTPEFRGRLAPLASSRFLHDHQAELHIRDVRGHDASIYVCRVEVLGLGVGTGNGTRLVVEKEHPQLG

[2] = target: T2, NCR3 on cell (on-cell binding in the affinity-maturation table) (human, UniProt O14931 19-201, limits assumed); assay: on-cell binding, Fab on NCR3
T2 construct: On cell
T2 sequence (looked up): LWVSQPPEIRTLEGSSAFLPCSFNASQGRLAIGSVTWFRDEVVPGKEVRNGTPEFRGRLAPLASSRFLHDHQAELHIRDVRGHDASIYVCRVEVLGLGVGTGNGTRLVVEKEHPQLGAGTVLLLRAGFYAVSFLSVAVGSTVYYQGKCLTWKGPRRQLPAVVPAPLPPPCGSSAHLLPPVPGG

Binder | EC50 [1] [nM] | EC50 [2] [nM]
B1 | 0.78 | 2.14
B2 | 0.68 | 1.61
B3 | 2.29 | 1.44
B4 | 1.38 | 4.67
B5 | 1.23 | 3.19
B6 | 0.95 | 2.74
B7 | 0.51 | 2.24
B8 | 1.11 | 4.09
B9 | 0.77 | 1.47
B10 | 0.53 | 2.13
B11 | 0.98 | 2.55
B12 | 0.57 | 3.11
B13 | 2.98 | 6.76
B14 | 0.58 | 2.11
B15 | 2.2 | 3.39
B16 | 0.38 | 1.41
